# Biological target: trimeric gp140 clade A HIV-1 92/UG/037 (HIV-1 clade A strain 92/UG/037)
# Assay: SPR
substance,measurement,value
GNA (natural protein),Kd,7.2 nM

# — PMC7261407
